Values of other authors in PMC3437676.

Target: Asp25 (UniProt position 515, KEALLDTGADD)
Assay: NMR
Conditions: free model peptide

HIV-1 protease model peptide, residues 20-30 (Human immunodeficiency virus 1)
pKa: near 4.0
